Earlier results on one substance are cited in PMC3325482.

As usually defined, the Kd is the concentration at which binding is half-saturated.

The target of the data set is Cd200R (Rattus norvegicus) (UniProt Q9ES58).
Sequence of UniProt Q9ES58 (Q9ES58 24-239): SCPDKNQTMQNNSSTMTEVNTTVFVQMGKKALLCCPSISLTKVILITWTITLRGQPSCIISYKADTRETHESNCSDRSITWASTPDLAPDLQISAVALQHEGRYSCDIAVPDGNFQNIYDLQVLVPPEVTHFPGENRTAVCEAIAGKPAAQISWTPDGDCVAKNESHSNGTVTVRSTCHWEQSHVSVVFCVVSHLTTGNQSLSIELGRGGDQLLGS

Regarding Cd200 (from UniProt P04218), the Kd is 2000 nM.
